# Measured values taken from patent US20140314667A1 (Amgen, published 2014).
# Numbering of substitutions follows the chain as printed. “And” between values parts separate entries of the source, which are not always exact repeats. Equal values may be shown once.
# B1: antibody 13.1.2 (antibody, V domains shown)
# VH: QVQLVESGGGVVQPGRSLRLSCAASGFTFSSYGMHWVRQAPGKGLEWVAVIWYDGSNKYYVDSVKGRFTISRDNSKNTLYLQMNSLRAEDTAVYYCARDGWQQLAPFDYWGQGTLVTVSS
# VL: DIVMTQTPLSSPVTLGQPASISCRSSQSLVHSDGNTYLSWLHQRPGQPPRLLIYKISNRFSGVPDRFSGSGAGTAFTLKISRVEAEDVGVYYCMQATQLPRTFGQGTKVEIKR
# B2: antibody 095 (antibody, IgG1, V domains shown)
# VH: QVQLQESGPFLVKPSQTLSLTCTVSGGSISSGGYYWSWIRQHPGKGLEWIGFIYYRGNTYYNPSLKSRVTISVDTSKNQFSLKLSSVTAADTAVYYCARDGYCSRTGCYGGWFDPWGQGTLVTVSP
# VL: DIVMTQTPLSSPVTLGQPASISCRSSQSLIHTDGNIYLSWLQQRPGQPPRLLIYKISNRFSGVPDRFSGSGAGTDFTLKISRVEAEDVGVYYCMQGTQFPITFGQGTRLEIK
# notes: Recombinant IgG1 kappa; also called sc95; SC95
# B3: SC-EGFRvIII-XG1-139 (antibody, IgG1, V domains shown)
# VH: EVQVLESGGGLVQPGGSLRLSCAASGFTFSSYAMSWVRQAPGKGLEWVSAISGSGGSTNYADSVKGRFTISRDNSKNTLYLQMNSLRAEDTAVYYCAGSSGWSEYWGQGTLVTVSS
# VL: DIQMTQSPSSLSASVGDRVTITCRASQGIRNNLAWYQQKPGKAPKRLIYAASNLQSGVPSRFTGSGSGTEFTLIVSSLQPEDFATYYCLQHHSYPLTSGGGTKVEIK
# notes: Recombinant IgG1 kappa; also called sc139; SC139
# B4: SC-EGFRvIII-XG2-150 (antibody, IgG1, V domains shown)
# VH: QVQLQQSGPGLVKPSQTLSLTCAISGDSVSSYSSAWNWIRQSPSRGLEWLGRAYHRSRWYYEYAVSVKSRINITPDTSKNQFSLQLNSVTPEDTAVYYCARGSRFDYWGQGTLVTVSS
# VL: B2 VL with I30V, T32R, I36T, V90I, Y92F, Q95H, G96T, I101W, L109V
# notes: kappa light chain; also called sc150; SC150
# B5: SC-EGFRvIII-XG2-170 (antibody, IgG1, V domains shown)
# VH: QVQLQQSGPGLVKPSQTLSLTCAISGDSVSSNNAAWNWIRQSPARGLEWLGRTYYRSKWYNDYVVSVKSRITINPDTSKNQFSLQLNSVTPEDTAVYYCVRATAFDYWGQGTLVTVSS
# VL: AIVLTQTPLSSPVTLGQPASISCRSSQSLVHRDGNTYLSWLQQRPGQPPRLLIYKISNRFSGVPDRFSGSGAGTDFTLKISRVEPDDVGVYYCMHTTQLPWTFGQGTKVEIK
# notes: kappa light chain; also called sc170; SC170
# B6: SC-EGFRvIII-XG1-211 (antibody, IgG1, V domains shown)
# VH: QVQLVESGGGVVQPGRSLRLSCVASGFTLSSYGMHWVRQAPGKGLEWVAVTSYDGSKKDYADSAKGRFTISRDNSKNTLYLQMNSLRAEDTAVYYCVSEGYCSSSSCYKYYYYGMDVWGQGTTVTVSS
# VL: DIVMTQSPLSLPVTPGEPASISCRSSQSLLYRNGNNYLDWYLQRPGQSPQLLIYLGSNRASGVPDRFSGSGSGTDFTLKISRVEAEDVGVYYCMQALQTPRTFGQGTKVEIK
# notes: Recombinant IgG1 kappa; also called sc211; SC211
# B7: SC-EGFRvIII-XG1-250 (antibody, IgG1, V domains shown)
# VH: B3 VH with V2G, V4L, L11W, G16E, M83V, A88V
# VL: DIQMTQSPSSLSASVGDSVTITCRTSQGIRKNLGWYQQKPGKAPKRLIYAASSLQSGVPSRFSGSGSGTEFTLTISRLQPEDFATYYCLQHHSYPLTFGGGTRVEIR
# notes: Recombinant IgG1 kappa; also called sc250; SC250
# B8: SC-EGFRvIII-XG1-318 (antibody, IgG1, V domains shown)
# VH: B6 VH with A64V, S103D
# VL: B6 VL
# notes: Recombinant IgG1 kappa; also called mAb ID 141A10
# B9: SC-EGFRvIII-XG1-123/124 (antibody, IgG1, V domains shown)
# VH: B6 VH with V23A, T51M, K58E, A64V, K76E, S105R
# VL: B6 VL with R44K, K79N, V90H
# notes: Recombinant IgG1 kappa; also called mAb ID 129A7
# B10: SC-EGFRvIII-XG1-333 (antibody, IgG1, V domains shown)
# VH: B6 VH with P41L, A64V, S103D, S105T
# VL: B6 VL
# notes: Recombinant IgG1 kappa; also called mAb ID 132D8
# B11: SC-EGFRvIII-XG1-342 (antibody, IgG1, V domains shown)
# VH: B6 VH with A64V, S103D, S105T
# VL: B6 VL
# notes: Recombinant IgG1 kappa; also called mAb ID 124D4
# B12: anti-EGFRvIII antibody 131 (antibody, human IgG1, V domains shown)
# VH: QVQLVESGGGVVQSGRSLRLSCAASGFTFRNYGMHWVRQAPGKGLEWVAVIWYDGSDKYYADSVRGRFTISRDNSKNTLYLQMNSLRAEDTAVYYCARDGYDILTGNPRDFDYWGQGTLVTVSS
# VL: DTVMTQTPLSSHVTLGQPASISCRSSQSLVHSDGNTYLSWLQQRPGQPPRLLIYRISRRFSGVPDRFSGSGAGTDFTLEISRVEAEDVGVYYCMQSTHVPRTFGQGTKVEIK
# notes: Recombinant human IgG1 kappa; also called sc131
# B13: Ab 131-DM1 conjugate (antibody, V domains shown)
# VH: B12 VH
# VL: B12 VL
# modifications: DM1 linked through SMCC (MCC) to amine groups of the antibody, 3.0-3.5 DM1 molecules per antibody; sites not stated
# Target: T1, EGFRvIII, full length, expressed on cells (human, UniProt P00533 25-1210)
# Test: cell-based or functional assay
row,Binder,% internalization [%]
1,B1,82.5
2,B2,72.4
3,B3,80.8
4,B4,20
5,B5,20.1
6,B6,21.6
7,B7,16.7

# Target: T1, EGFRvIII, full length, expressed on …
# Test: FACS on NR6 M cells, antibody at 0.25 ug/ml, no glutathione
# Description: XenoMax derived IgG1 recombinant antibodies were expressed, purified and quantitated as described previously. Antibodies were further assayed for their ability to internalize the EGFRvIII receptor in NR6 M cells. […] The cells were washed with cold 10% FCS in PBS and secondary antibody (SS Alexa antihuman IgG Fab) at 3 μg/ml Fab was added and incubated for 7 mins on ice. The cells were washed with cold 10% FCS in PBS once and then resuspended in cold media. Next, two sets of the triplicate were incubated at 37° C. and the remaining set was incubated at 4° C. for 1 hr. After that the cells incubated at 4° C. and one set of the cells incubated at 37° C. were treated with glutathione (as previously mentioned) for 1 hr on ice. Then the cells were washed and resuspended in 100 μl of cold 1% FCS in PBS and analyzed by FACS. The % internalization was calculated from the geometric mean obtained from the FACS analysis [(mean at 37° C. with glutathione−mean at 4° C. with glutathione)/(mean at 37° C. without glutathione−mean at 4 C with glutathione)].
row,Binder,"FACS Geometric mean, without glutathione 37 C [geometric mean]"
1,B1,22.1
2,B2,22.6
3,B3,22.6
4,B4,20.3
5,B5,20
6,B6,20.8
7,B7,24.1

# Target: T2, EGFRvIII-Rabbit Fc fusion protein (human; rabbit, UniProt P00533 25-645)
# T2 construct: Made in 293F cells; also called EGFRvIII-RbFc; EGFRvIII-Rab Ig Fc fusion protein; not shown: Hinge-CH2-CH3 domain of rabbit IgG (721 bp fragment)
# Test: ELISA, recombinant antibody supernatant on coated EGFRvIII-RbFc, 1.5 ug/ml
# Description: The secretion ELISA tests were performed as follows. For Ab secretion, 2 μg/mL of Goat anti-human IgG H+L and for antigen binding, 1.5 μg/ml of EGFRvIII-Rab Ig Fc fusion protein was coated onto Costar Labcoat Universal Binding Polystyrene 96 well plates and held overnight at four degrees. The plates were washed five times with dH₂O. Recombinant antibodies were titrated 1:2 for 7 wells from the undiluted minilipofection supernatant. The plates were washed five times with dH₂O. A goat anti-human IgG Fc-specific HRP-conjugated antibody was added at a final concentration of 1 μg/mL for 1 hour at RT for the secretion plates and binding plates detected with 1 μg/ml Rb anti Hu Fc for 1 hour at room temperature. The plates were washed five times with dH₂O. The plates were developed with the addition of TMB for 30 minutes and the ELISA was stopped by the addition of 1 M phosphoric acid. Each ELISA plate was analyzed to determine the optical density of each well at 450 nm.
row,Binder,"Titer, antigen binding"
1,B3,> 64 titer (1:x dilution of supernatant)
2,B4,> 64 titer (1:x dilution of supernatant)
3,B5,> 64 titer (1:x dilution of supernatant)
4,B8,64 titer (1:x dilution of supernatant)
5,B9,> 64 titer (1:x dilution of supernatant)
6,B6,> 64 titer (1:x dilution of supernatant)
7,B10,> 64 titer (1:x dilution of supernatant)
8,B11,> 64 titer (1:x dilution of supernatant)
9,B7,> 64 titer (1:x dilution of supernatant)
10,B12,> 64 titer (1:x dilution of supernatant)

# Target: T1, EGFRvIII, full length, expressed on …
# Test: cell-based or functional assay
# Remark: another data set of the same source
row,Binder,"IC50 of cell growth inhibition (CellTiter-Glo, U251vIII cells)"
1,B13,0.068 nM DM1 equivalents and 3 ng/mL
